The target in one assay is T1, 小鼠Sema7A蛋白 (mouse, UniProt Q9QUR8 45-646).
T1 construct: Endogenous protein of mouse lung tissue, denatured on a western blot; also called Semaphorin7A
T1 sequence (looked up): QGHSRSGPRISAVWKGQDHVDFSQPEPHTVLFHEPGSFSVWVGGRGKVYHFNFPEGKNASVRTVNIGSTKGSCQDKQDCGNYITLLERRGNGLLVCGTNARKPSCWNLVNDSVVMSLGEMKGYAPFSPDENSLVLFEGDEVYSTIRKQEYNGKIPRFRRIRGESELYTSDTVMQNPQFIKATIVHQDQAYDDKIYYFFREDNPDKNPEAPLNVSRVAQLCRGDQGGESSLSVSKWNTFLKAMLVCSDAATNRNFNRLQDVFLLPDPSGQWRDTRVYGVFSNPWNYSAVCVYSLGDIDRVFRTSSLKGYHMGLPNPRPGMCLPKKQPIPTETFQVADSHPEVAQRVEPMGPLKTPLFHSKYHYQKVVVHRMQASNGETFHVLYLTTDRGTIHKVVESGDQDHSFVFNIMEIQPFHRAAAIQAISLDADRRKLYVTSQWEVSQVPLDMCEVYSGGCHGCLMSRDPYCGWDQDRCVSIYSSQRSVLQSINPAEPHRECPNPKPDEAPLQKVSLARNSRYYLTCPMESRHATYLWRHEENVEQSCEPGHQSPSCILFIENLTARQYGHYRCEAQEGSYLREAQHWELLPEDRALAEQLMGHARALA
The assay is described as follows: western blot of mouse lung tissue. (In general: Immunoblotting shows a protein as a band on a membrane.)

In a further assay the target is T2, Sema7A_truncated抗原蛋白 (mouse, UniProt Q9QUR8 59-219).
T2 construct: Truncated part of mouse Sema7A chosen for antigenicity, expressed in E. coli from pET28a; also called Sema7A-His; not shown: His tag from pET28a (Sema7A-His)
T2 sequence: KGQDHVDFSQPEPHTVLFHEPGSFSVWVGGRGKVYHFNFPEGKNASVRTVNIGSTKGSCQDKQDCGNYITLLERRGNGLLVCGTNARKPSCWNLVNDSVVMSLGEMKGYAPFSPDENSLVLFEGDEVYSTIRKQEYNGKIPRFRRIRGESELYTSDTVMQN
The experiment in a line: ELISA, 1 ug antigen coated, antibody dilution series. (An ELISA detects its analyte on a solid surface through an enzyme-linked reagent.)

B1: Semaphorin7A单克隆抗体2567-1 (antibody, V domains shown)
VH: QVQLQQSGAELVKPGASVKLSCKASGYTFTSYYMYWVKQRPGQGLEWIGEINPSNGDTNFNEKFKSKATLTVDKSSSTAYMQLSSLTSEDSAVYYCTTPARATFAYWGQGTLVTVSA
VL: DVVMTQTPLSLPVSLGDQASISCRSSQSLVHSNGNTYLHWYLQKPGQSPKLLIYKVSNRFSGVPDRFSGSGSGTDFTLKISRVEAEDLGVYFCSQSTHVPYTFGGGTKLEIK
notes: also called Sema7A抗体2567-1
Turning to B1, the binding result with 小鼠Sema7A蛋白 and with Sema7A_truncated抗原蛋白 was “binds” throughout.
